# In the supplement of paper PMC10065799, “High-throughput profiling of sequence recognition by tyrosine kinases and SH2 domains using bacterial peptide display” (eLife, 2023):
# How the values were obtained:
# AncSZ = assay: phosphorylation enrichment, bacterial display (enrichment ratio); higher = better substrate or ligand; peptides without Tyr show the background
# EPHB1 = EPHB1 (UniProt P54762); assay: as above
# EPHB2 = EPHB2 (UniProt P29323); assay: as above
# FGFR1 = FGFR1 (UniProt P11362); assay: as above
# FGFR3 = FGFR3 (UniProt P22607); assay: as above
# Sequence of FGFR3 (P22607 whole entry, looked up): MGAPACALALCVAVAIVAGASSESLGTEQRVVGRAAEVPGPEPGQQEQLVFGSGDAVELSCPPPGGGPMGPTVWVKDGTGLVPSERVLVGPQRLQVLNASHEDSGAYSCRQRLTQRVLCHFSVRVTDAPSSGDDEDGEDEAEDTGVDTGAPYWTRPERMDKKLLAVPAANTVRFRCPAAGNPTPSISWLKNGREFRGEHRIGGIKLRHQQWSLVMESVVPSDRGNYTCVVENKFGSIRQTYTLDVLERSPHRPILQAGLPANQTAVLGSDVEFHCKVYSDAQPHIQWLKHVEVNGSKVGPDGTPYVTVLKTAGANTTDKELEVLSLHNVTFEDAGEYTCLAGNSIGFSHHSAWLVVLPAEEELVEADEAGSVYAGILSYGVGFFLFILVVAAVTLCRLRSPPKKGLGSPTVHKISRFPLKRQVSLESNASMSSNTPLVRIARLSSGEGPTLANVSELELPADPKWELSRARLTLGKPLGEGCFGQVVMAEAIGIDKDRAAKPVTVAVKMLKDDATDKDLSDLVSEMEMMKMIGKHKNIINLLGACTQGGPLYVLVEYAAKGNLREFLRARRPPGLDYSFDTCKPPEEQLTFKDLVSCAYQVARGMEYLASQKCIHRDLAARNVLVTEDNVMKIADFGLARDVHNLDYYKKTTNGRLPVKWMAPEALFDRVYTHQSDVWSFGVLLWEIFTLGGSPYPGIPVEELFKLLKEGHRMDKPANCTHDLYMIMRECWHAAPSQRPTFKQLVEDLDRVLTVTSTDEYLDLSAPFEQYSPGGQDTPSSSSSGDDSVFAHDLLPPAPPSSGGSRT
# Fer (mouse) = assay: as above
# Fes = Fes (UniProt P07332); assay: as above
# Sequence of Fes (P07332 whole entry, looked up): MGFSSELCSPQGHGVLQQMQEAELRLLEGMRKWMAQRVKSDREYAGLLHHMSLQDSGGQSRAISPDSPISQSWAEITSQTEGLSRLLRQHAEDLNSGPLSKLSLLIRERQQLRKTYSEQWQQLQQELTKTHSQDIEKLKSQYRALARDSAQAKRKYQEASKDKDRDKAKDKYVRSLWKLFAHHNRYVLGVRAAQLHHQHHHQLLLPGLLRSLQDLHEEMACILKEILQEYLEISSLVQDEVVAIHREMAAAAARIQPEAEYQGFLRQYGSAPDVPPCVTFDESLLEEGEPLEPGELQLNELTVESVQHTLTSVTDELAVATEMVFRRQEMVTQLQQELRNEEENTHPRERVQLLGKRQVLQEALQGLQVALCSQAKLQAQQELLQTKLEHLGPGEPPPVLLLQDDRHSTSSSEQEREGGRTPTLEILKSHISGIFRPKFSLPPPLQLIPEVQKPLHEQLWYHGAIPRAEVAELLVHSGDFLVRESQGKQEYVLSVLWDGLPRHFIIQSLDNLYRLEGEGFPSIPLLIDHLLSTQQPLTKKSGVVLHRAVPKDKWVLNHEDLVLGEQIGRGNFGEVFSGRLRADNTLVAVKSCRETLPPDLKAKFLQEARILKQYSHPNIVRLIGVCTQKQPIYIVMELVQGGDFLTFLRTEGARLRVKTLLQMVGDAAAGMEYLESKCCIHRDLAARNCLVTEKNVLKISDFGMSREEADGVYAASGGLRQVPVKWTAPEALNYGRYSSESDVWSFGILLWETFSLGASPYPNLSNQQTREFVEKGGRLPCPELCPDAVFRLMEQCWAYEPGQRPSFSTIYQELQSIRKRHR
# Fyn = Fyn (UniProt P06241); assay: as above
# Sequence of Fyn (P06241 whole entry, looked up): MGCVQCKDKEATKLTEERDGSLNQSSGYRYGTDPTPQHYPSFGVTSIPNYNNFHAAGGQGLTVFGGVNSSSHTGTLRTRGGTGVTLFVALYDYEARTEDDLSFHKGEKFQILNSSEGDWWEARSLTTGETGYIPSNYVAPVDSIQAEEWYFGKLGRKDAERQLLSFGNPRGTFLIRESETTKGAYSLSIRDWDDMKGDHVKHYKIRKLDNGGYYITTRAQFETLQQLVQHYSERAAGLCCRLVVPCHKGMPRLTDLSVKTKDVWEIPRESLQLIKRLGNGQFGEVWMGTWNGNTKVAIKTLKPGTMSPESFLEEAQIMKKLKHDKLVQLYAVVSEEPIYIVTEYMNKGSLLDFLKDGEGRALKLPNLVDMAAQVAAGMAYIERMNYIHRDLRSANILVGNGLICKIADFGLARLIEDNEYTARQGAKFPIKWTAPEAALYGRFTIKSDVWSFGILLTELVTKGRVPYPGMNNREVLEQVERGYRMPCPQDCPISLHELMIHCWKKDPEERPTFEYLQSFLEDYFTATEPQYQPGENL
# Hck = Hck (UniProt P08631); assay: as above
# Sequence of Hck (P08631 whole entry, looked up): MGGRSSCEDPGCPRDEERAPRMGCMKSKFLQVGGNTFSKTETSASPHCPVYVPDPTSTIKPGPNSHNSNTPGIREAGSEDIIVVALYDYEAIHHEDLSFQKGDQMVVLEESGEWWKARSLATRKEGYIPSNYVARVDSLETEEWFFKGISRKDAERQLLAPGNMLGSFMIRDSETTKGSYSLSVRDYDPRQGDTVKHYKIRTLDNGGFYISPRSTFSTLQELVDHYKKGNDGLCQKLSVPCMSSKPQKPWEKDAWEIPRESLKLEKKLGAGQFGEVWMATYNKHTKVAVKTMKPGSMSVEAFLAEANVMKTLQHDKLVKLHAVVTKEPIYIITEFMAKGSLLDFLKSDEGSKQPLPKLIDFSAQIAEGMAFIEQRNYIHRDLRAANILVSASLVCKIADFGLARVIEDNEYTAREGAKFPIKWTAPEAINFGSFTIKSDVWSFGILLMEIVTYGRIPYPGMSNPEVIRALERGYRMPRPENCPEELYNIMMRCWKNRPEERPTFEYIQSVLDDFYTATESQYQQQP
# Jak2 = Jak2 (UniProt O60674); assay: as above
# MERTK = MERTK (UniProt Q12866); assay: as above
# Sequence of MERTK (Q12866 whole entry, looked up): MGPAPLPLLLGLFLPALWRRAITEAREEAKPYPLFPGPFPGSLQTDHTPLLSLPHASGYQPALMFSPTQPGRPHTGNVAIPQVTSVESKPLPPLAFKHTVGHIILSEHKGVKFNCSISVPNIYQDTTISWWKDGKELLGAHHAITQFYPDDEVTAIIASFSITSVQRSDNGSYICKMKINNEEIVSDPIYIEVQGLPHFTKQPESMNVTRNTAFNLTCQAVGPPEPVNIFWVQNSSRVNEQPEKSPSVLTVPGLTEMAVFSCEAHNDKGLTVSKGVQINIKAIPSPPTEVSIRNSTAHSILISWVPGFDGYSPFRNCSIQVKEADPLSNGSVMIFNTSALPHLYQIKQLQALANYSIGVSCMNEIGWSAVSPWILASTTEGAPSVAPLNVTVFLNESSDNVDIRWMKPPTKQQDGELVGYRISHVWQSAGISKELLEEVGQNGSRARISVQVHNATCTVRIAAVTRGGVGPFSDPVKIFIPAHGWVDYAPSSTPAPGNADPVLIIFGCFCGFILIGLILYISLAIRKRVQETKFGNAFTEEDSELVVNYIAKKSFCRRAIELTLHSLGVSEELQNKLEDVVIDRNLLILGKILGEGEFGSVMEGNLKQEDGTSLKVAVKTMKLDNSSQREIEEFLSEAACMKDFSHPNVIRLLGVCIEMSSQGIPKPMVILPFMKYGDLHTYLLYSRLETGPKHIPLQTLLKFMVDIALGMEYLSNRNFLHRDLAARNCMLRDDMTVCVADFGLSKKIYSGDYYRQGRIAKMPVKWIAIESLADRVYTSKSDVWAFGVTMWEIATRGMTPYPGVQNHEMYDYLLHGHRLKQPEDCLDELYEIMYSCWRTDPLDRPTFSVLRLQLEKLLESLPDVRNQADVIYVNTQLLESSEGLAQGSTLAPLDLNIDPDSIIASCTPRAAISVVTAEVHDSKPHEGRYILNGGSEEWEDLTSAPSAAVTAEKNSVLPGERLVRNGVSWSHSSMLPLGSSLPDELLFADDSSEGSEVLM
# c-Abl (mouse) = assay: as above
# c-Src = assay: as above
# Grb2 SH2 = Grb2 SH2 (UniProt P62993); assay: SH2 binding enrichment of the phosphorylated peptide, bacterial display (enrichment ratio); higher = better substrate or ligand; peptides without Tyr show the background
# SHP2-C SH2 = assay: as above
# c-Src SH2 = assay: as above
# 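Wherever SH2 binding enrichment of the phosphorylated peptide, bacterial display is given: peptide library displayed on the E. coli surface as eCPX fusions, selected cells deep-sequenced, score is each peptide's frequency after selection divided by its frequency in the input.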
# 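Wherever phosphorylation enrichment, bacterial display is given: 11-residue human phosphosite peptides and single-mutation variants displayed on the E. coli surface, counted by deep sequencing, each peptide's frequency after selection divided by its frequency in the unselected input library; frequency after pTyr selection over input frequency; kinase dosed for 20-30% of maximal phosphorylation in three min.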
# Sequence of EPHB1 (P54762 whole entry, looked up): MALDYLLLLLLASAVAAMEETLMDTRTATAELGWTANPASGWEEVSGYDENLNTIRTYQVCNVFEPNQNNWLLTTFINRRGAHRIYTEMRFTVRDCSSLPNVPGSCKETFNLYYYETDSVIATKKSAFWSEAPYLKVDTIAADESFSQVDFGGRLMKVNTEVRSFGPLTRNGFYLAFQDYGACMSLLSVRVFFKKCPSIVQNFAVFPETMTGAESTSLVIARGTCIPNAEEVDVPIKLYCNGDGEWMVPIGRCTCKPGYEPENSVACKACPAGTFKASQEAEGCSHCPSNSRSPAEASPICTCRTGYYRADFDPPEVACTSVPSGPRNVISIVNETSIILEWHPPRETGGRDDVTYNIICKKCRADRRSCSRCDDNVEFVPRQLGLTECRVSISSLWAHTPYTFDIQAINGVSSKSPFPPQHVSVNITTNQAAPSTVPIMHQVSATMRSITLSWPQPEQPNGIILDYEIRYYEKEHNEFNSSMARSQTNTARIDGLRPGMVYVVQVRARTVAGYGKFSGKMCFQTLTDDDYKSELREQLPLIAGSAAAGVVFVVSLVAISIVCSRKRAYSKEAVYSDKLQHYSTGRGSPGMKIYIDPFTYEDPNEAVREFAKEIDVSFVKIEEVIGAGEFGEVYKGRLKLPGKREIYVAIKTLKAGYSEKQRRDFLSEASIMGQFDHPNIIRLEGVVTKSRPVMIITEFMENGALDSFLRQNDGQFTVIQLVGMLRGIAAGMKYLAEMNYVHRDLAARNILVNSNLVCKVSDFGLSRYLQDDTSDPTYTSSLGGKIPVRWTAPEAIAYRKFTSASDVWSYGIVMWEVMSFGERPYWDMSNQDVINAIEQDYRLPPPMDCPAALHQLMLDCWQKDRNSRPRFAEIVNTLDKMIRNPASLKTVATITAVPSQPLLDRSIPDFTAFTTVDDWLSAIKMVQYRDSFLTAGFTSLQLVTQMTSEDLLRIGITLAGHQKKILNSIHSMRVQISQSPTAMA
Sequence,SH2 binding enrichment (Grb2 SH2),SH2 binding enrichment (SHP2-C SH2),SH2 binding enrichment (c-Src SH2),phosphorylation enrichment (AncSZ),phosphorylation enrichment (EPHB1),phosphorylation enrichment (EPHB2),phosphorylation enrichment (FGFR1),phosphorylation enrichment (FGFR3),phosphorylation enrichment (Fer (mouse)),phosphorylation enrichment (Fes),phosphorylation enrichment (Fyn),phosphorylation enrichment (Hck),phosphorylation enrichment (Jak2),phosphorylation enrichment (MERTK),phosphorylation enrichment (c-Abl (mouse)),phosphorylation enrichment (c-Src)
KKRSVYLKVLF [CC2D2A_Y683],0.869,0.983,0.679,1.01,0.453,0.543,0.494,0.721,0.478,1.19,0.446,0.401,0.897,0.361,0.706,0.391
KNILCYIQGGS [HYDIN_Y4610],0.617,0.598,0.328,1.13,0.711,0.748,0.585,0.761,0.522,1.43,0.436,0.594,1.27,0.458,0.977,0.504
KPGVNYYFRVS,0.755,0.977,0.624,1.15,0.534,0.739,0.623,0.7,0.483,1.37,0.368,0.423,1.16,0.392,0.732,0.385
KPMDTYFDSTR [DYNC2H1_Y2230_YF],0.86,0.696,0.472,0.79,0.666,0.517,0.778,0.651,0.526,0.804,0.452,0.484,0.758,0.489,0.615,0.512
KPPFSYNALIM [FOXG1_Y186],0.726,0.497,0.403,0.641,0.424,0.488,0.455,0.628,0.461,0.724,0.438,0.472,0.632,0.525,0.57,0.512
KPSLKYVTYGN [GALNTL5_Y404_G401S],1.09,0.985,0.836,0.577,0.334,0.349,0.4,0.516,0.417,0.65,0.379,0.462,0.443,0.348,0.408,0.387
KQQEIYQELTQ [CD209_Y239],1.14,0.673,0.585,1.35,5.8,3.03,3.1,2.3,3.56,1.07,6.33,6.43,0.917,4.81,1.77,5.59
KRAIGYFSATS [FAM120A_Y327_YF],1.02,0.851,0.553,0.543,0.345,0.426,0.381,0.467,0.327,0.612,0.382,0.492,0.612,0.362,0.362,0.364

# Further lines, with some results ahead:
SH2 binding enrichment (Grb2 SH2),SH2 binding enrichment (SHP2-C SH2),SH2 binding enrichment (c-Src SH2),Sequence,phosphorylation enrichment (AncSZ),phosphorylation enrichment (EPHB1),phosphorylation enrichment (EPHB2),phosphorylation enrichment (FGFR1),phosphorylation enrichment (FGFR3),phosphorylation enrichment (Fer (mouse)),phosphorylation enrichment (Fes),phosphorylation enrichment (Fyn),phosphorylation enrichment (Hck),phosphorylation enrichment (Jak2),phosphorylation enrichment (MERTK),phosphorylation enrichment (c-Abl (mouse)),phosphorylation enrichment (c-Src)
0.931,0.907,0.785,KLKRSYCSPDI [USP8_Y717_S718C],0.538,0.36,0.37,0.415,0.534,0.318,0.712,0.401,0.393,0.648,0.459,0.534,0.433
1.13,0.651,0.531,KLKRSYSSRDI [USP8_Y717_P720R],0.45,0.351,0.409,0.289,0.368,0.371,0.464,0.329,0.327,0.51,0.432,0.51,0.458
0.713,0.576,0.408,KMGNEYVTKGQ [MYH7_Y410_V406M],0.447,0.367,0.353,0.375,0.447,0.385,0.523,0.358,0.451,0.418,0.374,0.326,0.344
0.743,0.836,0.837,KMKGDYYCYLA [YWHAG_Y130_R132C],2.32,4.58,4.35,11,9.02,0.895,1.24,1.38,1.58,3.93,6.74,1.57,1.78
0.99,0.762,0.68,KNITEYCRDLI [RECQL_Y492],0.877,0.544,0.606,0.476,0.691,0.502,1.05,0.477,0.471,0.791,0.397,0.66,0.42
0.623,0.805,0.672,KNKELYSDPFD [PDE10A_Y300_L303P],0.877,0.878,1.37,0.706,0.935,0.983,0.886,0.443,0.824,0.763,0.786,0.592,0.629
0.78,0.609,0.402,KPLMPYMRYSR [SMARCE1_Y73],0.787,0.353,0.449,0.449,0.431,0.384,0.761,0.432,0.435,0.626,0.467,0.635,0.52
1.61,1.36,1.1,KRLKDYLMVLQ [USP25_Y425_T427M],0.661,0.503,0.545,1.5,0.93,0.507,0.791,0.456,0.515,0.595,0.428,0.5,0.444
